{
  "source": "patent US20210403547A1",
  "molecular_target": "membrane-bound ligands (TGF-alpha and Epiregulin) on HT-29 cells",
  "experiment": "cell-based or functional assay",
  "data": [
    {"substance": "Control IgG (antibody)", "values": [
      {"measurement": "Mean Ringspot Total Intensity of Fluorescence (internalization into HT-29 cells), 40 ug/mL, 0 min post addition", "value": 94},
      {"measurement": "Mean Ringspot Total Intensity of Fluorescence (internalization into HT-29 cells), 40 ug/mL, 5 min post addition", "value": 116},
      {"measurement": "Mean Ringspot Total Intensity of Fluorescence (internalization into HT-29 cells), 40 ug/mL, 15 min post addition", "value": 126},
      {"measurement": "Mean Ringspot Total Intensity of Fluorescence (internalization into HT-29 cells), 40 ug/mL, 30 min post addition", "value": 124},
      {"measurement": "Mean Ringspot Total Intensity of Fluorescence (internalization into HT-29 cells), 40 ug/mL, 60 min post addition", "value": 167},
      {"measurement": "Mean Ringspot Total Intensity of Fluorescence (internalization into HT-29 cells), 40 ug/mL, 120 min post addition", "value": 177},
      {"measurement": "Mean Ringspot Total Intensity of Fluorescence (internalization into HT-29 cells), dose 0.34 ug/ml, 2 h at 37 C", "value": 1410},
      {"measurement": "Mean Ringspot Total Intensity of Fluorescence (internalization into HT-29 cells), dose 0.69 ug/ml, 2 h at 37 C", "value": 1480},
      {"measurement": "Mean Ringspot Total Intensity of Fluorescence (internalization into HT-29 cells), dose 1.38 ug/ml, 2 h at 37 C", "value": 1470},
      {"measurement": "Mean Ringspot Total Intensity of Fluorescence (internalization into HT-29 cells), dose 2.75 ug/ml, 2 h at 37 C", "value": 1570},
      {"measurement": "Mean Ringspot Total Intensity of Fluorescence (internalization into HT-29 cells), dose 5.5 ug/ml, 2 h at 37 C", "value": 1360},
      {"measurement": "Mean Ringspot Total Intensity of Fluorescence (internalization into HT-29 cells), dose 11 ug/ml, 2 h at 37 C", "value": 1390},
      {"measurement": "Mean Ringspot Total Intensity of Fluorescence (internalization into HT-29 cells), dose 22 ug/ml, 2 h at 37 C", "value": 1760},
      {"measurement": "Mean Ringspot Total Intensity of Fluorescence (internalization into HT-29 cells), dose 44 ug/ml, 2 h at 37 C", "value": 1810},
      {"measurement": "Mean Ringspot Total Intensity of Fluorescence (internalization into HT-29 cells), dose 88 ug/ml, 2 h at 37 C", "value": 2440}
    ]}
  ]
}
